The data set relates to MS2 coat protein. Kind of data set: apparent KD of MS2 coat protein; higher = weaker reporter binding. The settings on record: Eterna round: R107. An outline of the steps:
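Titration buffer: 100 mM Tris-HCl pH 7.5, 80 mM KCl, 4 mM MgCl2, without or with constant ligand. Designed RNA switches transcribed on-chip from Illumina sequencing clusters received SNAP-549-labelled MS2 coat protein in twofold steps from 0.7 or 1.5 nM to 3 µM. Apparent KD is the median per design of fits to normalised cluster binding curves.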

The mark [1] stands for this setting: input ligand: theophylline 20 uM.
[2] abbreviates: input ligand: tryptophan 2.4 mM.
[3] abbreviates: input ligand: theophylline 2 mM.

On to “AAACAUGAGGAUCACCCAUGUUCAAUAGAUACCAGUGAUACGGUGCACCCUUGGCAGCUGUUGCUGAGUGAUGGUUCCCUCGGUA [#24 SameState-TheophyllineA]”, for which the “apparent KD of MS2 coat protein” value is 19.9 nM (input ligand: arginine 13.2 mM), 32.9 nM under setting [1] and 27.1 nM under setting [2].

For “GUUAUGGACCUGGAUACCAGCUGGUACAAGGGCGGUCUACAUGAGGAUCACCCAUGUGUCAGCCCUUGGCAGCCAGCAACCCACU [Cele]”, the “apparent KD of MS2 coat protein” value (input ligand: arginine 13.2 mM) turned out to be 10.6 nM, the “apparent KD of MS2 coat protein” value under setting [1] was 16.7 nM and the “apparent KD of MS2 coat protein” value under setting [2] worked out at 9.57 nM.

“GUGUGCGGCACGGCCGCCACUGCGGUGGUGUGACAUGAGGAUCACCCAUGUUGUCAUGCGGCCCUUAGGACCGGGUGGCGUGCAC [#1 Exclusion - Tryptophan B Attempt #17 (HarryS)]”: the “apparent KD of MS2 coat protein” value runs as follows: (input ligand: arginine 13.2 mM) 27.4 nM; (input ligand: none) 37.3 nM; under setting [1], 61.2 nM; under setting [3], 50.4 nM; under setting [2], 46.5 nM.

With “CAUAGCAAAAGUGAUACCAGAGUUCGAGGGAACAUGAGGAUCACCCAUGUGCUUGUACAACUCCCUUGGCAGCACAGAGCAAUUA [theeternabot_sameState_MS2_Theo_B_16]”, the “apparent KD of MS2 coat protein” value reads like this: (input ligand: arginine 13.2 mM) 24.3 nM; under setting [1], 22.1 nM; under setting [2], 26.9 nM.

“AGGACGGUCGGAAGGAGCGGUACAUGAGGAUCACCCAUGUACUUAUGGGCAUCCGUAGAGUGCCAGGUAGGUCGCCGAUUGCGGG [XArg-B11]”: the “apparent KD of MS2 coat protein” value reads like this: (input ligand: arginine 13.2 mM) 17.2 nM; (input ligand: none) 33 nM; under setting [1], 29 nM; under setting [3], 21.8 nM; under setting [2], 34.1 nM.

For the sequence “UGGUACUAGGCGGCCGCCACUGGGUGAUACAUGAGGAUCACCCAUGUUUAAUGCCGAGAGGCAACUAGGACCGGGCCUAGUACAU”, the “apparent KD of MS2 coat protein” value was 101 nM (input ligand: arginine 13.2 mM), 339 nM under setting [1] and 586 nM under setting [3].

For the sequence “UCAAAUGCGGCGGCCGCCACUCGCGGAUAACGAUAGCUUAACAUGAGGAUCACCCAUGUGUCAUGGAGGACCGGGCCCAUAACAU [ttmullin]”, the “apparent KD of MS2 coat protein” value came out at 23.4 nM (input ligand: arginine 13.2 mM); 27.2 nM (input ligand: none); 35.1 nM under setting [1]; 37.1 nM under setting [3]; 23.9 nM under setting [2].

Consider “AGCAUGUUCAGAAGGAGCGUGCAAGGGUACAUUCGUAGGACAUGAGGAUCACCCAUGUAAGCACAGGUAGGUCGCUGGACAUGCU [Arg B SS t5]”, for which the “apparent KD of MS2 coat protein” value is, setting by setting: (input ligand: arginine 13.2 mM) 71.1 nM; (input ligand: none) 98.7 nM; under setting [1], 82.4 nM; under setting [3], 129 nM; under setting [2], 107 nM.

With “AUACAUGAGGAUCACCCAUGUUACACUGAAGGAGCGACAUGUUUGUCAGGUAGGUCGCAGUGAAGUUUAAUAAUUCUUUGAUCUU [#06 Same State - Arginine A]”, the “apparent KD of MS2 coat protein” value runs as follows: (input ligand: arginine 13.2 mM) 22.4 nM; (input ligand: none) 24 nM; under setting [1], 36.4 nM; under setting [3], 26.5 nM; under setting [2], 23.7 nM.

As to “AAGGUGAUCCGUGAUACCAGCUCAACAUGAGGAUCACCCAUGUACGGGACGAAAGUCCCGGGCCCUUGGCAGCACGGUUGCCAAG [SSTheo B #20]”, the “apparent KD of MS2 coat protein” value came out at 53.2 nM (input ligand: arginine 13.2 mM); 89.8 nM (input ligand: none); 239 nM under setting [1]; 93.7 nM under setting [3]; 109 nM under setting [2].

“UGGUACAUGAGGAUCACCCAUGUUCCAGAUACCAGCGUCCCGGUGCGCCCUUGGCAGCUGGUGGUACAUGAGGAUCACCCAUGUG [Exclusion Theophylline A GF14]”: the “apparent KD of MS2 coat protein” value is, setting by setting: (input ligand: arginine 13.2 mM) 35.2 nM; (input ligand: none) 40.2 nM; under setting [1], 50 nM; under setting [3], 61.2 nM; under setting [2], 44.9 nM.

Regarding “ACCUGUACGAAAAGUGCAGGACAUGGUAAACGAGGACCGGUACGGCCGCCACUCGAAGAAAACAAGUGGAUCACCCUUGUCCAUG [TrypAS 4 #AlternativeMS2 #Zipper #StaticStem]”, the “apparent KD of MS2 coat protein” value by setting is: (input ligand: arginine 13.2 mM) 292 nM; (input ligand: none) 622 nM; under setting [1], 641 nM; under setting [3], 2090 nM; under setting [2], 1350 nM.

Regarding “ACACAAUACAUGAGGAUCACCCAUGUAAAACGAGGACCGGUACGGCCGCCACUCGAAUACUGUAAUCCUCGGAAUAUUAAGUGAA [JR_ExcTryptA_Sub002]”, the “apparent KD of MS2 coat protein” value is, setting by setting: (input ligand: arginine 13.2 mM) 28.7 nM; under setting [1], 57.1 nM; under setting [3], 61.6 nM.

As to “AGAAUAUAGUCGGCCGCCACUCUACAAACAUGAGGAUCACCCAUGUUCACAUAGUGGAAACACAUGAGGACCGGGACAUAGGCAU [#17 Same State - Tryptophan B]”, the “apparent KD of MS2 coat protein” value turned out to be 14 nM (input ligand: arginine 13.2 mM), 21.4 nM under setting [1] and 18.3 nM under setting [3].

Consider “GGCCAGGCAGCGGCCGCCACUUAGUGGGCCGAAUGUCCUUUGCUGAACAUGAGGAUCACCCAUGUAAGGACCGGGCUGUUCCGCA [theeternabot_exclusion_MS2_Trp_B_30]”, for which the “apparent KD of MS2 coat protein” value is, setting by setting: (input ligand: arginine 13.2 mM) 27.4 nM; under setting [1], 42.3 nM; under setting [3], 41.5 nM.

The values above are taken from the supplement of paper PMC9170038.
